Data from article PMC2632919 (Nucleic Acids Research, 2008).

T1: HmtSSB (human mitochondrial SSB) (Homo sapiens, UniProt Q04837 17-148)
T1 sequence: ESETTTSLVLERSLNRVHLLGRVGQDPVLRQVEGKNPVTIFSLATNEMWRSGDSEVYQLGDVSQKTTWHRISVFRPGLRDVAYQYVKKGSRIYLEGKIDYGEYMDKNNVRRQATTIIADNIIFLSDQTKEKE


Experiments:
[1] = molecular target: T1, HmtSSB (human mitochondrial SSB); assay: fluorescence anisotropy
[2] = molecular target: T1, HmtSSB (human mitochondrial SSB); assay: fluorescence anisotropy; remark: listed apart in the source
[3] = molecular target: the molecule itself; assay: AUC

Row | Binder | Kd [1] | apparent K (half saturation) [2] | stoichiometry N [3]
1 | GTTTTCCCAGTCACGAC (ssDNA) [17-mer] | 19.2 ± 3.1 nM | 19.4 ± 4 nM | 
2 | human mitochondrial single-stranded DNA-binding protein (HmtSSB) (natural protein, UniProt Q04837 17-148, looked up) ESETTTSLVLERSLNRVHLLGRVGQDPVLRQVEGKNPVTIFSLATNEMWRSGDSEVYQLGDVSQKTTWHRISVFRPGLRDVAYQYVKKGSRIYLEGKIDYGEYMDKNNVRRQATTIIADNIIFLSDQTKEKE |  |  | 4
